Read-outs that look alike come from different tables or passages of the source.
B1: G1A5: first-round directly evolved PON1 variant, thioredoxin-fused; SEQ ID NO: 25 (DNA), 57 (protein) (protein)
chain: MAKLTALTLLGLGLALFDGQKSSFQTRFNVHREVTPVELPNCNLVKGIDNGSEDLEILPNGLAFISSGLKYPGIMSFDPDKSGKILLMDLNEEDPVVLELGITGNTLDISSFNPHGISTFIDEDNTVYLLVVNHPDSSSTVEVFKFQEKEKSLLHLKTIRHKLLPSVNDIVAVGPEHFYATNDHYFIDPYLKSWEMHLGLAWSFVTYYSPNDVRVVAEGFDFANGINISPDGKYVYIAELLAHKIHVYEKHANWTLTPLKSLDFNTLVDNISVDPVTGDLWVGCHPNGMRIFYYDPENPPGSEVLRIQNILSKEPKVTVVYAENGTVLQGTTVASVYKGKLLIGTVFHKALYCEL
modifications: thioredoxin-fused; In vitro evolved PON variant G1A5
B2: RabPON1: wild-type rabbit PON1, GenBank Accession No. AF220943 (protein, listed as Rattus norvegicus)
chain: MAKLLGLTLVGLVLALYKNHRSSYQTRLNAFREVTPVDLPNCTLVKGIEAGAEDLEILPNGLTFFSTGLKYPGIKSFDPSKPGKILLMDLNEKEPAVSELAIMGNTLDMSSFNPHGISTFIDEDNTVYLLVVSHPDSSSTVEVFKFQEEERSLLHLKTITHELLPSINDIAAVGPESFYATNDHYFADPYLRSWEMYLGLSWSNVVYYSPDKVRVVADGFDFANGIGISLDGKYVYIAELLAHKIHVYEKHANWTLTPLKVLSFDTLVDNISVDPVTGDLWVGCHPNGMRIFFYDSENPPGSEVLRIQSILSEDPKVTVVYAENGTVLQGTTVAAVYKGKLLIGTVFHRALCCDL
B3: G3H8: third-round rPON1 variant, unmodified 355 aa protein without tags; SEQ ID NO: 29 (DNA), 61 (protein) (protein)
chain: MAKLTAPTLLGLGLALFDRQKSSFQTRFNVHREVTPVELPNCNLVKGIDNGSEDLEILPNGLAFISSGLKYPGIMSFDPDKSGKILLMDLNEEDPVVLELGITGSTFDLSSFNPHGISTFTDEDNTVYLLVVNHPDSSSTVEVFKFQEKERSLLHLKTIRHKLLPSVNDIVAVGPESFYATNDHYFADPYLKSWEMHLGLAWSFVTYYSPNDVRVVAEGFDFANGINISPDGKYVYIAELLAHKIHVYEKHANWTLTPLKSLDFNTLVDNISVDPVTGDLWVGCHPNGMRIFYYDPENPPGSEVLRIQDILSKEPKVTVVYAENGTVLQGSTVAAVYKGKLLIGTVFHKALYCDL
modifications: In vitro evolved PON variant G3H8
B4: hPON1: wild-type human PON1; kinetic values for enzyme purified from sera; SEQ ID NO: 24, 36 (protein, listed as Homo sapiens)
chain: MAKLIALTLLGMGLALFRNHQSSYQTRLNALREVQPVELPNCNLVKGIETGSEDLEILPNGLAFISSGLKYPGIKSFNPNSPGKILLMDLNEEDPTVLELGITGSKFDVSSFNPHGISTFTDEDNAMYLLVVNHPDAKSTVELFKFQEEEKSLLHLKTIRHKLLPNLNDIVAVGPEHFYGTNDHYFLDPYLQSWEMYLGLAWSYVVYYSPSEVRVVAEGFDFANGINISPDGKYVYIAELLAHKIHVYEKHANWTLTPLKSLDFNTLVDNISVDPETGDLWVGCHPNGMKIFFYDSENPPASEVLRIQNILTEEPKVTQVYAENGTVLQGSTVASVYKGKLLIGTVFHKALYCEL
B5: 7HY: G3C9-derived PON1 variant, mutations F292V, Y293D, I109M; SEQ ID NO: 74, 75 (protein)
chain: MAKLTALTLLGLGLALFDGQKSSFQTRFNVHREVTPVELPNCNLVKGVDNGSEDLEILPNGLAFISSGLKYPGIMSFDPDKSGKILLMDLNEEDPVVLELGITGNTLDMSSFNPHGISTFTDEDNTVYLLVVNHPDSSSTVEVFKFQEEEKSLLHLKTIRHKLLPSVNDIVAVGPEHFYATNDHYFADPYLKSWEMHLGLAWSFVTYYSPNDVRVVAEGFDFANGINISPDGKYVYIAELLAHKIHVYEKHANWTLTPLKSLDFDTLVDNISVDPVTGDLWVGCHPNGMRIVDYDPKNPPGSEVLRIQDILSEEPKVTVVYAENGTVLQGSTVAAVYKGKLLIGTVFHKALYCEL
modifications: In vitro evolved PON variant 7HY
B6: G3C9: third-round highly soluble rPON1 variant without tags, wt-like activity; SEQ ID NO: 55 (DNA), 56 (protein) (protein)
chain: MAKLTALTLLGLGLALFDGQKSSFQTRFNVHREVTPVELPNCNLVKGVDNGSEDLEILPNGLAFISSGLKYPGIMSFDPDKSGKILLMDLNEEDPVVLELGITGNTLDISSFNPHGISTFTDEDNTVYLLVVNHPDSSSTVEVFKFQEEEKSLLHLKTIRHKLLPSVNDIVAVGPEHFYATNDHYFADPYLKSWEMHLGLAWSFVTYYSPNDVRVVAEGFDFANGINISPDGKYVYIAELLAHKIHVYEKHANWTLTPLKSLDFDTLVDNISVDPVTGDLWVGCHPNGMRIFYYDPKNPPGSEVLRIQDILSEEPKVTVVYAENGTVLQGSTVAAVYKGKLLIGTVFHKALYCEL
modifications: In vitro evolved PON variant G3C9

How the values were obtained:
[1] = format: biochemical; details: pH 8; for Km: read-out: KM(Paraoxon)
[2] = format: biochemical; details: read-out: 2-Naphthyl acetate KM
[3] = format: biochemical; details: read-out: Dihydrocoumarin KM
[4] = format: biochemical
[5] = read-out: Kd for the first (higher affinity) calcium; cited from earlier work
[6] = format: biochemical; details: read-out: KM for L-Hcy hydrolysis
[7] = read-out: KM for L-HcyT hydrolysis; cited from earlier work
[8] = read-out: KM(PheAc); cited from earlier work
[9] = read-out: KM(Paraoxon); cited from earlier work
[10] = format: biochemical; remark: listed apart in the source
[11] = format: biochemical; details: read-out: DEPCyC hydrolysis KM

Row | Molecule | kcat(Paraoxon) [1] [s⁻¹] | Km [1] [µM] | Km [2] [µM] | Km [3] [µM] | kcat (PheAc) ([4]; pH 8) [s⁻¹] | Km ([4]; pH 8, read-out: KM(PheAc)) [µM] | Kd [5] [nM] | other results
1 | B1 | 1.16 | 85 | 80 | 120 | 833 | 390 | – | –
2 | B2 | – | – | – | – | – | – | 50 | –
3 | B3 | 1.2 | 88 | 110 | 76 | 1018 | 320 | – | Km [6]: ~19000 µM
4 | B4 | – | – | – | – | – | – | 360 | Km [7]: 23000 µM; Km [8]: 420 µM; Km [9]: 540 µM
5 | B5 | – | – | – | – | – | – | – | shift in substrate selectivity [10]: up to 4,600 fold
6 | B6 | 1.1 | 94 | – | – | 789 | 330 | – | Km [11]: 70 µM; Km ([4]; read-out: Phenylacetate hydrolysis KM): 330 µM

Source: patent US7786071B2 (priority 2003, dated 2010)
